The experiment has as its target human megalin (human). As to the kind of experiment: SPR. A general note: SPR reads the build-up and loss of mass on a sensor chip optically.

Chain of human megalin (human) (O00711 whole entry): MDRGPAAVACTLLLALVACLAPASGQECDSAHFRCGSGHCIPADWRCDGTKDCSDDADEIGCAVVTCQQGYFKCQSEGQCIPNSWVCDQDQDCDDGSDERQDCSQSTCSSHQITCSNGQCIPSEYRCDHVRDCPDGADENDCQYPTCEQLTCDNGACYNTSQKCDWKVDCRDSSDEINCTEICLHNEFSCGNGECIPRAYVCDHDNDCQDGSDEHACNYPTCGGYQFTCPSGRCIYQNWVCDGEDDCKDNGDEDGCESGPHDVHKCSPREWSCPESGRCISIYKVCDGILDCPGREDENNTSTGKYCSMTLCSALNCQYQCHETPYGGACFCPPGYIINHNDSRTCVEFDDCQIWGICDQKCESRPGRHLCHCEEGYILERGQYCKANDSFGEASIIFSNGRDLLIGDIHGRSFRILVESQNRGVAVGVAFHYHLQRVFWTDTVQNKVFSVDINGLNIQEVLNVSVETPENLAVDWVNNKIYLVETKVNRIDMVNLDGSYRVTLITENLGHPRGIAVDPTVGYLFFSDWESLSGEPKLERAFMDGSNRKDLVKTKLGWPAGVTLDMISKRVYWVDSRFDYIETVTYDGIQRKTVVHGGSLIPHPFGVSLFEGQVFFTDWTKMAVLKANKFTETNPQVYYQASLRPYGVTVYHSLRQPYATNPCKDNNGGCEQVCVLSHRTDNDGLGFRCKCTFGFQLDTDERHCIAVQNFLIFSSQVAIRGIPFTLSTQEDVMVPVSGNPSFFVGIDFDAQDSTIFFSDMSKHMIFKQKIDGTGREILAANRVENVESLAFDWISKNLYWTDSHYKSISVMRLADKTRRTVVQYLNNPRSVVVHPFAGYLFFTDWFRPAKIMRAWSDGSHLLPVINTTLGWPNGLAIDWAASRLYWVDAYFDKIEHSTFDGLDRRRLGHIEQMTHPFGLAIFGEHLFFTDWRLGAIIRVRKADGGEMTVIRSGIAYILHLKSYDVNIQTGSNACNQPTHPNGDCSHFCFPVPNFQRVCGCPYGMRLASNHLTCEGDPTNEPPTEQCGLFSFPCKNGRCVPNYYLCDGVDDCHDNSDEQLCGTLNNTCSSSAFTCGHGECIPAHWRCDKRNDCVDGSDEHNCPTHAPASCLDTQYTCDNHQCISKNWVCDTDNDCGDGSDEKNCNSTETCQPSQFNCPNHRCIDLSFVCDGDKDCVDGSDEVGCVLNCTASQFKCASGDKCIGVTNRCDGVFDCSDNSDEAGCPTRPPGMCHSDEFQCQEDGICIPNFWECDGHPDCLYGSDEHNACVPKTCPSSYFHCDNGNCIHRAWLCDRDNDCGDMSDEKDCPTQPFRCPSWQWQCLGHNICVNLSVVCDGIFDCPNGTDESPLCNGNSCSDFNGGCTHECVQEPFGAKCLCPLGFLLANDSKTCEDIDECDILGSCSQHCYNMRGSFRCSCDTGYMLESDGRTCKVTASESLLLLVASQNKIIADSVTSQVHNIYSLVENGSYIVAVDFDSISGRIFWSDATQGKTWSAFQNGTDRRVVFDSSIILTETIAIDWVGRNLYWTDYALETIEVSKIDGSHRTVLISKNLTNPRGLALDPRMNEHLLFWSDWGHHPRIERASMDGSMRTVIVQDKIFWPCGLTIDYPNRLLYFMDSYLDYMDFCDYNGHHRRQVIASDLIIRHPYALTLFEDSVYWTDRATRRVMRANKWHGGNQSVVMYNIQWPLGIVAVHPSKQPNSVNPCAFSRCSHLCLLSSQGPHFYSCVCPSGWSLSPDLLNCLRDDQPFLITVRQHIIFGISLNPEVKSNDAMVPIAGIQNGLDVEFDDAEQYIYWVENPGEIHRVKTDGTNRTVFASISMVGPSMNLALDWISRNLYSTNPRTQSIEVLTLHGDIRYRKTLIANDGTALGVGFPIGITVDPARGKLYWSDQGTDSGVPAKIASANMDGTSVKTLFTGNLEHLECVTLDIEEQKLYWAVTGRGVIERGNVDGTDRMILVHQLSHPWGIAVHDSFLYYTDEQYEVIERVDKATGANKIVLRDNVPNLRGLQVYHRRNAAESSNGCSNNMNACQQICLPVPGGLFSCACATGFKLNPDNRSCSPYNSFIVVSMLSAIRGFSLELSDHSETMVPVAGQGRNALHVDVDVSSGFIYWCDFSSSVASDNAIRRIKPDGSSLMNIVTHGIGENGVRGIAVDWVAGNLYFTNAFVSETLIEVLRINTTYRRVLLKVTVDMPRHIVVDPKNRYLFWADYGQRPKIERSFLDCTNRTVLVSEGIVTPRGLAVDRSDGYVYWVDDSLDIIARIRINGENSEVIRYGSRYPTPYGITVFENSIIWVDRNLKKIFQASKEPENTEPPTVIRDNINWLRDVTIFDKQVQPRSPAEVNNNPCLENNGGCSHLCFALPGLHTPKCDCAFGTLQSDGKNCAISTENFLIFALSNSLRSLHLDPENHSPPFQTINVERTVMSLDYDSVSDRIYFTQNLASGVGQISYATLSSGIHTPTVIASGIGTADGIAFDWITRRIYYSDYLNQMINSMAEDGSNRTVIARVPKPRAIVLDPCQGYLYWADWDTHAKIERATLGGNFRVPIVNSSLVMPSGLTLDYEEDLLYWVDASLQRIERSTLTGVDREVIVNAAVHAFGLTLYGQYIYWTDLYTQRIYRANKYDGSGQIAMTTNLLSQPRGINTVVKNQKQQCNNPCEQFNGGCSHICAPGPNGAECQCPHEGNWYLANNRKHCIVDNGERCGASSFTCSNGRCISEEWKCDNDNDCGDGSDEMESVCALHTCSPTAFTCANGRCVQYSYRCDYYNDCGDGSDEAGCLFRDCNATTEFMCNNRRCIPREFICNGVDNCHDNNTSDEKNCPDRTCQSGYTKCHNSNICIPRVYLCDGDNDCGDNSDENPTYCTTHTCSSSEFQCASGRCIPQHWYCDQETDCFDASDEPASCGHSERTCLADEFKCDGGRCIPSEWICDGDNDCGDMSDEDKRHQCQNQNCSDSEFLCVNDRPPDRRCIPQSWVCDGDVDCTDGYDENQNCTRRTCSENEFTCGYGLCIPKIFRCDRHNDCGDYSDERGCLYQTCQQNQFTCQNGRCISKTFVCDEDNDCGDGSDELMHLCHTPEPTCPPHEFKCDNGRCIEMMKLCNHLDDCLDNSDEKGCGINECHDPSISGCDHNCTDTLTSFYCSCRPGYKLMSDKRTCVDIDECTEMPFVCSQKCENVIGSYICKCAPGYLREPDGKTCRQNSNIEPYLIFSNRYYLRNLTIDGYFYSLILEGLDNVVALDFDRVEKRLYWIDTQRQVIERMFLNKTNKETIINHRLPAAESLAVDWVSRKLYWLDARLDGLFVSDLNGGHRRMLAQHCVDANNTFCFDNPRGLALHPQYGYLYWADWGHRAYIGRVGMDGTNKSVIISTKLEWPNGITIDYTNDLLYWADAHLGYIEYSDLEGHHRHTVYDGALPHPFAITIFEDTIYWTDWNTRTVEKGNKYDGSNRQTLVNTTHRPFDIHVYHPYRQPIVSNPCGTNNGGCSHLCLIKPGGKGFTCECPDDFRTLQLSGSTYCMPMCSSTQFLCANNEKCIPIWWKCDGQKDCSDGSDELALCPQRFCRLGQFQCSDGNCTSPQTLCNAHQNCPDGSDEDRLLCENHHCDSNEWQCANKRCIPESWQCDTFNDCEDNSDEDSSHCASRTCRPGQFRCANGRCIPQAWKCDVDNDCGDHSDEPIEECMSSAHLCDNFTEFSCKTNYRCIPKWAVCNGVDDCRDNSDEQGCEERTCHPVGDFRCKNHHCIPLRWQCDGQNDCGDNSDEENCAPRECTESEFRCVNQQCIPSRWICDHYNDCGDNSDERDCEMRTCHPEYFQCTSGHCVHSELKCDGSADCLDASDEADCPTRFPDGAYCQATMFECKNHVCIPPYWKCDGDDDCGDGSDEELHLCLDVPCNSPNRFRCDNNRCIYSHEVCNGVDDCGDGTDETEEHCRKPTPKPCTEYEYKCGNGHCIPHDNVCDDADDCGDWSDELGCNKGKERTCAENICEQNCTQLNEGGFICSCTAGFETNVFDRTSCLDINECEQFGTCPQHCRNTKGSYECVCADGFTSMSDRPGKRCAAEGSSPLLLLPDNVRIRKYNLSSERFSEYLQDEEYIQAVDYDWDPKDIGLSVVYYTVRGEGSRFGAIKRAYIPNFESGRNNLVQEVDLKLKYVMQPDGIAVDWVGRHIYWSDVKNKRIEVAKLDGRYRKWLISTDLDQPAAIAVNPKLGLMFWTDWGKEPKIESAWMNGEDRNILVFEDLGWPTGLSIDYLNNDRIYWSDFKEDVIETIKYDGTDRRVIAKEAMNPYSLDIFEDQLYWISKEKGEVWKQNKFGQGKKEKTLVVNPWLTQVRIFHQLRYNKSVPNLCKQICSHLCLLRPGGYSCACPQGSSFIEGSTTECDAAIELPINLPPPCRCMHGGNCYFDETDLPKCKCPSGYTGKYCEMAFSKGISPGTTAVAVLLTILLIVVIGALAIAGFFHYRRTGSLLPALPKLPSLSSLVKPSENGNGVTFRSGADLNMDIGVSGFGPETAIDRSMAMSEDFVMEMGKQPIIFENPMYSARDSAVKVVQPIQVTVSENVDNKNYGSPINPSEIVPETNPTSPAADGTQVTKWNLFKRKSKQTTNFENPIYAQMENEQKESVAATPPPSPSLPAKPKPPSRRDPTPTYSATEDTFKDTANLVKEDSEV

B1: WT human NGAL (ligand-free) (protein)
chain: QDSTSDLIPAPPLSKVPLQQNFQDNQFQGKWYVVGLAGNAILREDKDPQKMYATIYELKEDKSYNVTSVLFRKKKCDYWIRTFVPGCQPGEFTLGNIKSYPGLTSYLVRVVSTNYNQHAMVFFKKVSQNREYFKITLYGRTKELTSELKENFIRFSKSLGLPENHIVFPVPIDQCIDG
The term Kd denotes a measure of binding affinity in units of concentration. The molecule B1 yielded a dissociation constant Kd of about 60 nM.

(Values after patent US12746270 (dated 2026).)
